Reference: publication PMC10397247

Key:
4H391-AA = molecular target: T1, 4H391-AA; assay: two-hybrid library CCmax; conditions: mean of both orientations;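 further: natural log of median RNA to DNA barcode read ratio; higher means stronger binding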
T1 chain: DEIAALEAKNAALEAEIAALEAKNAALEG

4H3029-AA = molecular target: T2, 4H3029-AA; assay: two-hybrid library CCmax; conditions: mean of both orientations;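 further: natural log of median RNA to DNA barcode read ratio; higher means stronger binding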
T2 chain: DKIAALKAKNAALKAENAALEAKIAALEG

4H2742-AA = molecular target: T3, 4H2742-AA; assay: two-hybrid library CCmax; conditions: mean of both orientations;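 further: natural log of median RNA to DNA barcode read ratio; higher means stronger binding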
T3 chain: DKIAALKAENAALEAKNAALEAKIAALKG

4H478-AA = molecular target: T4, 4H478-AA; assay: two-hybrid library CCmax; conditions: mean of both orientations;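 further: natural log of median RNA to DNA barcode read ratio; higher means stronger binding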
T4 chain: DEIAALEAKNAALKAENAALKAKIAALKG

4H3920-AA = molecular target: T5, 4H3920-AA; assay: two-hybrid library CCmax; conditions: mean of both orientations
T5 chain: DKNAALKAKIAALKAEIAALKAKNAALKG

4H3939-AA = molecular target: T6, 4H3939-AA; assay: two-hybrid library CCmax; conditions: mean of both orientations
T6 chain: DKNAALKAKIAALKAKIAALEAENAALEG

4H2713-AA = molecular target: T7, 4H2713-AA; assay: two-hybrid library CCmax; conditions: mean of both orientations
T7 chain: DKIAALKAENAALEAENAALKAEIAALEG

4H3709-AA = molecular target: T8, 4H3709-AA; assay: two-hybrid library CCmax; conditions: mean of both orientations
T8 chain: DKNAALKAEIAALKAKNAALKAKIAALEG

4H3666-AA = molecular target: T9, 4H3666-AA; assay: two-hybrid library CCmax; conditions: mean of both orientations
T9 chain: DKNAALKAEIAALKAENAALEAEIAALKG

4H3066-AA = molecular target: T10, 4H3066-AA; assay: two-hybrid library CCmax; conditions: mean of both orientations
T10 chain: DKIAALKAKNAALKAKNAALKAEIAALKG

4H656-AA = molecular target: T11, 4H656-AA; assay: two-hybrid library CCmax; conditions: mean of both orientations
T11 chain: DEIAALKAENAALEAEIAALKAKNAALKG

4H428-AA = molecular target: T12, 4H428-AA; assay: two-hybrid library CCmax; conditions: mean of both orientations
T12 chain: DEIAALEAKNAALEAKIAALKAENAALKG

4H3591-AA = molecular target: T13, 4H3591-AA; assay: two-hybrid library CCmax; conditions: mean of both orientations
T13 chain: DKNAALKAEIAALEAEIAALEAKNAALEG

4H971-AA = molecular target: T14, 4H971-AA; assay: two-hybrid library CCmax; conditions: mean of both orientations
T14 chain: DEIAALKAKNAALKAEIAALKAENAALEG

4H675-AA = molecular target: T15, 4H675-AA; assay: two-hybrid library CCmax; conditions: mean of both orientations
T15 chain: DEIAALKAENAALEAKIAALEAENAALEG

4H3121-AA = molecular target: T16, 4H3121-AA; assay: two-hybrid library CCmax; conditions: mean of both orientations
T16 chain: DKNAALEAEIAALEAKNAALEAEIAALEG

4H2283-AA = molecular target: T17, 4H2283-AA; assay: two-hybrid library CCmax; conditions: mean of both orientations
T17 chain: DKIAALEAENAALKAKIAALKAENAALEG

4H497-AA = molecular target: T18, 4H497-AA; assay: two-hybrid library CCmax; conditions: mean of both orientations
T18 chain: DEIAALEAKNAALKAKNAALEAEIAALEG

4H2948-AA = molecular target: T19, 4H2948-AA; assay: two-hybrid library CCmax; conditions: mean of both orientations
T19 chain: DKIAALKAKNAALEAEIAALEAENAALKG

4H3417-AA = molecular target: T20, 4H3417-AA; assay: two-hybrid library CCmax; conditions: mean of both orientations
T20 chain: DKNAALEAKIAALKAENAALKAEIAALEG

4H2991-AA = molecular target: T21, 4H2991-AA; assay: two-hybrid library CCmax; conditions: mean of both orientations
T21 chain: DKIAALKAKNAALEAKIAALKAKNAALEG

4H2248-AA = molecular target: T22, 4H2248-AA; assay: two-hybrid library CCmax
T22 chain: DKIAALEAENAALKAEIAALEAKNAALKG

4H3102-AA = molecular target: T23, 4H3102-AA; assay: two-hybrid library CCmax; conditions: mean of both orientations
T23 chain: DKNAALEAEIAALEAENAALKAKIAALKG

4H3446-AA = molecular target: T24, 4H3446-AA; assay: two-hybrid library CCmax; conditions: mean of both orientations
T24 chain: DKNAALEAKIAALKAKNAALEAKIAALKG

4H3628-AA = molecular target: T25, 4H3628-AA; assay: two-hybrid library CCmax; conditions: mean of both orientations
T25 chain: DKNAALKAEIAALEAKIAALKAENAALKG

4H3628-bA = molecular target: T26, 4H3628-bA; assay: two-hybrid library CCNG1
T26 chain: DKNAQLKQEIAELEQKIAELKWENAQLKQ

4H906-bA = molecular target: T27, 4H906-bA; assay: two-hybrid library CCNG1
T27 chain: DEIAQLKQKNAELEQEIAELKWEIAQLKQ

4H626-bA = molecular target: T28, 4H626-bA; assay: two-hybrid library CCNG1
T28 chain: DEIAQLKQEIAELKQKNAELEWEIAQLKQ

4H3613-bA = molecular target: T29, 4H3613-bA; assay: two-hybrid library CCNG1
T29 chain: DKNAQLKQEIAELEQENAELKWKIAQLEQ

4H3926-bA = molecular target: T30, 4H3926-bA; assay: two-hybrid library CCNG1
T30 chain: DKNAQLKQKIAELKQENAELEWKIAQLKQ

4H3497-bA = molecular target: T31, 4H3497-bA; assay: two-hybrid library CCNG1
T31 chain: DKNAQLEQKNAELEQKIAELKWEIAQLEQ

4H3638-bA = molecular target: T32, 4H3638-bA; assay: two-hybrid library CCNG1
T32 chain: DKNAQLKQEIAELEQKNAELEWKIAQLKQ

4H591-bA = molecular target: T33, 4H591-bA; assay: two-hybrid library CCNG1
T33 chain: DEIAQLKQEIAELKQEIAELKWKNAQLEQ

4H3462-bA = molecular target: T34, 4H3462-bA; assay: two-hybrid library CCNG1
T34 chain: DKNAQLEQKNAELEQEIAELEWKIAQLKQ

4H3298-bA = molecular target: T35, 4H3298-bA; assay: two-hybrid library CCNG1
T35 chain: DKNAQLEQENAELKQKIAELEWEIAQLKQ

4H348-bA = molecular target: T36, 4H348-bA; assay: two-hybrid library CCNG1
T36 chain: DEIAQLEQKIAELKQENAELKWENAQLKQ

4H741-bA = molecular target: T37, 4H741-bA; assay: two-hybrid library CCNG1
T37 chain: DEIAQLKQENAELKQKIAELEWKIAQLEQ

4H40-bA = molecular target: T38, 4H40-bA; assay: two-hybrid library CCNG1
T38 chain: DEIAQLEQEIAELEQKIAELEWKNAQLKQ

4H492-bA = molecular target: T39, 4H492-bA; assay: two-hybrid library CCNG1
T39 chain: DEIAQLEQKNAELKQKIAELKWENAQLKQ

4H477-bA = molecular target: T40, 4H477-bA; assay: two-hybrid library CCNG1
T40 chain: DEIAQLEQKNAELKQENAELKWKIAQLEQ

4H3277-bA = molecular target: T41, 4H3277-bA; assay: two-hybrid library CCNG1
T41 chain: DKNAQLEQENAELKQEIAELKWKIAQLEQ

4H319-bN = molecular target: T42, 4H319-bN; assay: two-hybrid library CCNG1
T42 chain: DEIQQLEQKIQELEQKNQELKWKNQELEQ

4H492-bN = molecular target: T43, 4H492-bN; assay: two-hybrid library CCNG1
T43 chain: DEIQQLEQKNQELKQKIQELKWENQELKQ

4H40-bN = molecular target: T44, 4H40-bN; assay: two-hybrid library CCNG1
T44 chain: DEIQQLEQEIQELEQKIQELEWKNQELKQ

4H2839-bN = molecular target: T45, 4H2839-bN; assay: two-hybrid library CCNG1
T45 chain: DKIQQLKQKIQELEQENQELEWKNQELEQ

4H2915-bN = molecular target: T46, 4H2915-bN; assay: two-hybrid library CCNG1
T46 chain: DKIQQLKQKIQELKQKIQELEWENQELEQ

4H477-bN = molecular target: T47, 4H477-bN; assay: two-hybrid library CCNG1
T47 chain: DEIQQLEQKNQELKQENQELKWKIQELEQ

4H3057-bN = molecular target: T48, 4H3057-bN; assay: two-hybrid library CCNG1
T48 chain: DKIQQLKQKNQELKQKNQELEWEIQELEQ

4H348-bN = molecular target: T49, 4H348-bN; assay: two-hybrid library CCNG1
T49 chain: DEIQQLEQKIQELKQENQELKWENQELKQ

4H3277-bN = molecular target: T50, 4H3277-bN; assay: two-hybrid library CCNG1
T50 chain: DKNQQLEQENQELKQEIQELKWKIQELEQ

4H2717-bN = molecular target: T51, 4H2717-bN; assay: two-hybrid library CCNG1
T51 chain: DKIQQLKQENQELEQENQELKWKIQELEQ

4H741-bN = molecular target: T52, 4H741-bN; assay: two-hybrid library CCNG1
T52 chain: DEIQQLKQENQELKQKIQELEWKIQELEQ

O7 = molecular target: T53, O7; assay: two-hybrid library CCNG1
T53 chain: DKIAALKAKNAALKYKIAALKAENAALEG

O4 = molecular target: T54, O4; assay: two-hybrid library CCNG1
T54 chain: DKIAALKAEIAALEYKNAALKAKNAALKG

O6 = molecular target: T55, O6; assay: two-hybrid library CCNG1
T55 chain: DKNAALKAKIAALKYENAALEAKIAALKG

O8 = molecular target: T56, O8; assay: two-hybrid library CCNG1
T56 chain: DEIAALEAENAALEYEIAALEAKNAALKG

O5 = molecular target: T57, O5; assay: two-hybrid library CCNG1
T57 chain: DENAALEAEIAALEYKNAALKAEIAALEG

O9 = molecular target: T58, O9; assay: two-hybrid library CCNG1
T58 chain: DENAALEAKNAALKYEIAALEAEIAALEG

DKIAALEAENAALKAEIAALEAKNAALKG [4H2248-AA]
interaction score (4H391-AA): -1.16
interaction score (4H3029-AA): -1.79
interaction score (4H2742-AA): -1.88
interaction score (4H478-AA): 0.536
interaction score (4H3920-AA): -1.51
interaction score (4H3939-AA): -1.4
interaction score (4H2713-AA): -1.2
interaction score (4H3709-AA): -1.23
interaction score (4H3666-AA): -0.505
interaction score (4H3066-AA): -1.25
interaction score (4H656-AA): -0.26
interaction score (4H428-AA): -0.478
interaction score (4H3591-AA): -1.39
interaction score (4H971-AA): 1.05
interaction score (4H675-AA): 0.827
interaction score (4H3121-AA): -1.69
interaction score (4H2283-AA): 2.34
interaction score (4H497-AA): -2.18
interaction score (4H2948-AA): -0.353
interaction score (4H3417-AA): 0.548
interaction score (4H2991-AA): -0.183
interaction score (4H2248-AA): 2.16
interaction score (4H3102-AA): 2.22
interaction score (4H3446-AA): 0.189
interaction score (4H3628-AA): -1.59

DKNAQLEQKNAELEQEIAELEWKIAQLKQ [4H3462-bA]
interaction score (4H3628-bA): -1.42
interaction score (4H906-bA): -1.46
interaction score (4H626-bA): -0.693
interaction score (4H3613-bA): -0.827
interaction score (4H3926-bA): 0.717
interaction score (4H3497-bA): 0.917
interaction score (4H3638-bA): -1.05
interaction score (4H591-bA): 0.153
interaction score (4H3462-bA): 0.257

DKNAQLEQENAELKQEIAELKWKIAQLEQ [4H3277-bA]
interaction score (4H3628-bA): -0.955
interaction score (4H3298-bA): -0.215
interaction score (4H906-bA): -0.838
interaction score (4H626-bA): -0.429
interaction score (4H3613-bA): -0.514
interaction score (4H3926-bA): -0.539
interaction score (4H348-bA): -0.856
interaction score (4H741-bA): -1.81
interaction score (4H3497-bA): -0.961
interaction score (4H40-bA): -1.08
interaction score (4H492-bA): -0.379
interaction score (4H591-bA): -1.19
interaction score (4H477-bA): -0.644
interaction score (4H3462-bA): -0.372
interaction score (4H3277-bA): 1.38

DKIQQLKQENQELEQENQELKWKIQELEQ [4H2717-bN]
interaction score (4H319-bN): -0.684
interaction score (4H492-bN): -0.854
interaction score (4H40-bN): -1.61
interaction score (4H2839-bN): -0.648
interaction score (4H2915-bN): -0.6
interaction score (4H477-bN): 1.4
interaction score (4H3057-bN): -1.99
interaction score (4H348-bN): -0.289
interaction score (4H3277-bN): -1.11
interaction score (4H2717-bN): 0.00236
interaction score (4H741-bN): -2.58

DKIAALKAEIAALEYKNAALKAKNAALKG [O4]
interaction score (O7): -2.43
interaction score (O4): -2.15
interaction score (O6): -2.27
interaction score (O8): -2.07
interaction score (O5): -2.52
interaction score (O9): -1.88

DKNAQLEQENAELKQKIAELEWEIAQLKQ [4H3298-bA]
interaction score (4H3628-bA): -0.0439
interaction score (4H3298-bA): 1.02
interaction score (4H906-bA): -0.638
interaction score (4H626-bA): -1.12
interaction score (4H3613-bA): 0.681
interaction score (4H3926-bA): -0.651
interaction score (4H3497-bA): -0.263
interaction score (4H591-bA): -0.699
interaction score (4H3462-bA): 0.667
